# Measurements from patent publication US20250222029A1.
# Biological target: HER2 (human epidermal growth factor receptor 2) (human) (UniProt P04626)
# Assay: cell-based or functional assay
substance,measurement,value
CasMab250 (H/L)-based CAR with medium spacer (IgG4 hinge & CH3 domain) and CD28-CD3ζ1XX intracellular signaling domains,"maximal cytolysis of SKOV3 tumor cells (xCELLigence, E:T 1:1)",90%
